Measured values from patent publication US20120053118A1.
Where a chain is given by its changes, count along the chain named. Bridge positions count the residues as written; N and C are the ends. Ends that are not written are not given here.

B1: ^25, 28Pro-h-Amylin (peptide)
peptide: KCNTATCATQRLANFLVHSSNNFGPILPSTNVGSNTY
B2: ^2, 7Cyclo-[^2Asp,^7Lys]-h-Amylin (peptide)
peptide: B1 peptide with C2D, C7K, P25A, P28S
modifications: lactam 2-7; not fully specified (C-terminus)
B3: ^18Arg^25, 28Pro-h-Amylin (peptide)
peptide: B1 peptide with H18R
B4: ^18Arg^25, 28, 29Pro-h-Amylin (peptide)
peptide: B1 peptide with H18R, S29P
B5: ^25, 28, 29Pro-h-Amylin (peptide)
peptide: B1 peptide with S29P
modifications: disulfide 2-7; not fully specified (C-terminus)
B6: ^25Pro^26Val^28, 29Pro-h-Amylin (peptide)
peptide: B1 peptide with I26V, S29P
B7: des-^1Lys^25, 28Pro-h-Amylin (peptide)
peptide: CNTATCATQRLANFLVHSSNNFGPILPSTNVGSNTY
B8: des-^1Lys^18Arg^25, 28, 29Pro-h-Amylin (peptide)
peptide: B7 peptide with H17R, S28P
B9: des-^1Lys^18Arg^25, 28Pro-h-Amylin (peptide)
peptide: B7 peptide with H17R
B10: des-^1Lys^25, 28, 29Pro-h-Amylin (peptide)
peptide: B7 peptide with S28P

Molecular target: amylin receptors (membrane-bound, rat basal forebrain membranes containing the nucleus accumbens and surrounding regions) (rat)
Test: competition with 125I Bolton-Hunter rat amylin on rat basal forebrain membranes

| IC50 [nM] | Molecule |
| --- | --- |
| 0.026 | B1 |
| 0.31 | B2 |
| 0.032 | B3 |
| 0.021 | B4 |
| 0.01 | B5 |
| 0.018 | B6 |
| 0.085 | B7 |
| 0.021 | B8 |
| 0.082 | B9 |
| 0.014 | B10 |

Molecular target: amylin receptors (membrane-bound, rat basal forebrain membranes containing the nucleus accumbens and surrounding regions) (rat)
Test: as above
Remark: another data set of the same source

| IC50 [µM] | Molecule |
| --- | --- |
| 50 | human amylin (hAmylin) (ligand) |
